T1: GFRAL ECD-Fc (GFRAL extracellular domain, human IgG1 Fc, 6xHis-tag and Avi-tag) (human, UniProt Q6UXV0 19-351)
T1 construct: The recombinant signal peptide is left out; also called GFRAL extracellular domain (ECD)-Fc fusion; not shown: human IgG1 Fc; 6xHis-tag and Avi-tag at the C-terminus
T1 sequence: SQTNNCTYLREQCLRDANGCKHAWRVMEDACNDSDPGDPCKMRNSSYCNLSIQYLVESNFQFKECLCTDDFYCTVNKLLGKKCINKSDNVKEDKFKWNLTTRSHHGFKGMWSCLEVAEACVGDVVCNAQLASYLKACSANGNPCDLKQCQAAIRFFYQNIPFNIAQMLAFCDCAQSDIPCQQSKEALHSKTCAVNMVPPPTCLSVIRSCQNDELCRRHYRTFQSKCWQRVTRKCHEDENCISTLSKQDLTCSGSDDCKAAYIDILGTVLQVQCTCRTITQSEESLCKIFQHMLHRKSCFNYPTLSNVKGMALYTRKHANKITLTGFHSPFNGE

T2: Human GFRAL ECD-Fc (human GFRAL extracellular domain fused to human IgG1 Fc with 6xHis-tag) (human, UniProt Q6UXV0 19-351)
T2 construct: not shown: Human IgG1 Fc, any junction and the C-terminal 6xHis
T2 sequence: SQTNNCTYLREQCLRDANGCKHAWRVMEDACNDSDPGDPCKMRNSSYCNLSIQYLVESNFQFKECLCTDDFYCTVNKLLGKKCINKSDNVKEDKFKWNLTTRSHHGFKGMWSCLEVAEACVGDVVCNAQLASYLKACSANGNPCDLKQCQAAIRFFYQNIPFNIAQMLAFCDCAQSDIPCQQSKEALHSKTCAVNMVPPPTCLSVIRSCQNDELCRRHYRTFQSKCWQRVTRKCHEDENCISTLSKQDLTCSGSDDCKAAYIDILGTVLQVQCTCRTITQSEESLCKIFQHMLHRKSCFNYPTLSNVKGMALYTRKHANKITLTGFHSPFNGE


Tests used:
[1] = molecular target: T1, GFRAL ECD-Fc (GFRAL extracellular …); experiment: SPR
[2] = molecular target: T3, cyno GFRAL ECD-Fc (cynomolgus monkey GFRAL extracellular domain fused to human IgG1 Fc with 6xHis-tag) (cynomolgus monkey); experiment: SPR (ProteOn)
Experimental: Affinity measurements using Surface Plasmon Resonance (SPR) were performed using a ProteOn XPR36 system (Bio-Rad, Hercules, Calif.). A biosensor surface was prepared by coupling anti-Human IgG Fc (Jackson Immuno Research Labs, West Grove, Pa.) to the modified alginate polymer layer surface of a GLC chip (BioRad) using the manufacturer's instructions for amine-coupling chemistry. Approximately 5000 RU (response units) of mAbs were immobilized. The kinetic experiments were performed at 25° C. in running buffer (DPBS+0.01% P20+100 μg/ml BSA). To perform binding kinetic experiment of HSA-GDF15, GFRAL ECD-Fc or isotype control were captured followed by injections of ligands at 5 concentrations (in a 4-fold serial dilution). The association phase was monitored for 3 minutes at 50 μl/min, then followed by 15 minutes of buffer flow (dissociation phase). The chip surface was regenerated with two 18 second pulses of 100 mM H3PO4 (Sigma, St. Louis, Mo.) at 100 μL/min. The collected data were processed using ProteOn Manager software. First, the data was corrected for background using inter-spots. Then, double reference subtraction of the data was performed by using the buffer injection for analyte injections. The kinetic analysis of the data was performed using a Langmuir 1:1 binding model. […]

[3] = molecular target: T2, Human GFRAL ECD-Fc (human GFRAL …); experiment: SPR (ProteOn), GFRAL ECD-Fc captured by anti-human IgG Fc
Experimental: (§1) Affinity measurements using Surface Plasmon Resonance (SPR) were performed using a ProteOn XPR36 system (Bio-Rad, Hercules, Calif.). A biosensor surface was prepared by coupling anti-Human IgG Fc (Jackson Immuno Research Labs, West Grove, Pa.) to the modified alginate polymer layer surface of a GLC chip (BioRad) using the manufacturer's instructions for amine-coupling chemistry. Approximately 5000 RU (response units) of mAbs were immobilized. The kinetic experiments were performed at 25° C. in running buffer (DPBS+0.01% P20+100 μg/ml BSA). To perform binding kinetic experiment of HSA-GDF15, GFRAL ECD-Fc or isotype control were captured followed by injections of ligands at 5 concentrations (in a 4-fold serial dilution). The association phase was monitored for 3 minutes at 50 μl/min, then followed by 15 minutes of buffer flow (dissociation phase). The chip surface was regenerated with two 18 second pulses of 100 mM H3PO4 (Sigma, St. Louis, Mo.) at 100 μL/min. The collected data were processed using ProteOn Manager software. First, the data was corrected for background using inter-spots. Then, double reference subtraction of the data was performed by using the buffer injection for analyte injections. The kinetic analysis of the data was performed using a Langmuir 1:1 binding model. The result was reported in the format of ka (On-rate), kd (Off-rate) and KD (equilibrium dissociation constant).

[4] = molecular target: T3, cyno GFRAL ECD-Fc (cynomolgus monkey …); experiment: as above
Experimental: as §1

Row | Binder | Kd [1] | koff [1] | kon [1] | fold difference in binding affinity against human GFRAL [2] | Kd [3] | koff [3] | kon [3] | Kd [4] | koff [4] | kon [4]
1 | FlagTag-GDF15, homodimer (ligand, it is counted on the native full length protein; also called non-fusion GDF15; mature GDF15 homodimer) EFDYKDDDDKARNGDHCPLGPGRCCRLHTVRASLEDLGWADWVLSPREVQVTMCIGACPSQFRAANMHAQIKTSLHRLKPDTVPAPCCVPASYNPMVLIQKTDTGVSLQTYDDLLAKDCHCI | 0.0196 nM | 0.000197 s⁻¹ | 1.01e+07 M⁻¹ s⁻¹ | – | – | – | – | – | – | –
2 | HSA-GDF15 (Example 7; linker SEQ ID NO:26) (ligand, not shown: large carriers; small tags and cut ends, Disulfide-linked homodimer through GDF15; one protomer is given., No His tag is told of for this construct; purified on HSA CaptureSelect resin) ARNGDHCPLGPGRCCRLHTVRASLEDLGWADWVLSPREVQVTMCIGACPSQFRAANMHAQIKTSLHRLKPDTVPAPCCVPASYNPMVLIQKTDTGVSLQTYDDLLAKDCHCI | – | – | – | ≤ 2 fold | 0.0861 nM | 0.000156 s⁻¹ | 1.81e+06 M⁻¹ s⁻¹ | 0.157 nM | 0.000291 s⁻¹ | 1.86e+06 M⁻¹ s⁻¹
